From publication PMC13371181, “A paracrine-to-autocrine shunt of GREM1 fuels colorectal cancer metastasis via ACVR1C” (Molecular Cancer, 2026)
“Also recorded” adds a separate entry of the source. Blank lines part the entries; values can stand above or below the molecule they belong to.

Experiments:
[1] = test system: BMP signaling (p-SMAD1/5/9 versus p-SMAD2/3); conditions: sb4; cited from earlier work
Source text: Considering that GREM1 is a canonical antagonist of BMP and that BMPRs exert their function through phosphorylation of SMAD1/5/9 (p-SMAD1/5/9), we sought to determine whether GREM1 regulates EMT via BMPR superfamily pathways. […] This definitive exclusion of BMPR–SMAD1/5/9 involvement establish ...

[2] = test system: HCT116 and SW480 cells; test: EMT markers by immunoblotting and RT–qPCR; assay type: cell-based, human; conditions: GREM1-CM + GREM1 BAb, + SB505124 (1 µM) or + different concentrations of sb4 (sb4: immunoblotting)
Description: (§1) To investigate the effect of secreted GREM1 on CRC cells, an in vitro GREM1 secretion system was established using HEK293 cells. Stably GREM1-expressing cells (pcDNA3.1-GREM1) and empty-vector transfected cells (pcDNA3.1) were cultured in DMEM/F12 medium with 10% FBS until 40% confluence. After complete removal of the normal culture medium, HEK293-GREM1 and HEK293-Vec cells were continuously cultured in DMEM/F12 medium without FBS for 5 days before medium collection. GREM1 or Vector conditioned medium (GREM1-CM/Vec-CM) was then centrifuged at 1000 rpm for 30 min and the supernatant was collected for further study.
(§2) Protein was extracted from the cells with RIPA buffer (Beyotime, P0018) or NP40 lysis buffer (Beyotime, P0013F) and separated by SDS-PAGE, and transferred to polyvinylidene difluoride membranes. […] Band intensity was quantified using Fiji (ImageJ) by grayscale analysis.
(§3) Total RNA was extracted using Trizol reagent (Invitrogen, 15596026). […] The SYBR Green Premix Pro Taq HS qPCR Kit (Accurate Biology, AG11701) was then used to quantify mRNA expression according to the manufacturer’s instructions. All results were calculated using the 2^−ΔΔCt method. […]

[3] = target: T1, GREM1 (Homo sapiens, UniProt O60565); test: MST binding of ACVR1C-ECD double mutant (E85A/T101A) to GREM1-His; conditions: double mutant 0–27.5 µM vs 50 nM red-labeled GREM1-His, PBS pH 7.4
T1 construct: His; purchased R&D 5190-GR
T1 sequence (O60565 25-184): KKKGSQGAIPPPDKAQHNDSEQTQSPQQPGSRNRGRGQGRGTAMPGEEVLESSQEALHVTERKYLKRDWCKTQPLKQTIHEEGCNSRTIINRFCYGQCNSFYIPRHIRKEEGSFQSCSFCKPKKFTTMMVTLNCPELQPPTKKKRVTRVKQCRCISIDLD
Source text: (§4) Expi293F cells were transfected with a pcDNA3.4-ACVR1C-ECD-Fc and pcDNA3.4-ACVR1C-ECD-Fc-double mutant (E85A/T101A) expression vector to produce the target protein, which was subsequently purified using a Protein G column. Briefly, the coding sequence (CDS) of the human ACVR1C extracellular domain (ACVR1C-ECD, NM_145259.3, residues 1–113) fused to an Fc tag was cloned into the pcDNA3.4 vector. Expi293F cells were transfected with this construct, the supernatant was harvested 5 days post transfection.
(§5) MST was carried out on a Monolith NT.115 instrument (NanoTemper Technologies GmbH, MO-L011). To evaluate ACVR1C-ECD or ACVR1C peptide or ACVR1C-ECD-double mutant (E85A/T101A) binding to GREM1-His or ACTIVIN B-His, an increasing concentration of purified ACVR1C-ECD-Fc protein (0–27.5 µM) or ACVR1C peptide (0–2.3 µM) or ACVR1C-ECD-double mutant (0–27.5 µM) was incubated with 50 nM red-fluorescently labeled (NanoTemper Technologies GmbH, MO-L011) GREM1-His protein (R&D, 5190-GR) or ACTIVIN B-His protein (SinoBiological, 10814-H08H). Experiments were carried out in a PBS buffer pH 7.4 using premium capillaries (NanoTemper Technologies GmbH, MO-K025).

[4] = test system: ACVR1C; test: Co-immunoprecipitation of GREM1 and ACVR1C; assay type: binding, human; conditions: HCT116 cells, HA-tagged GREM1, anti-HA
Description: (§6) HCT116 cells were transfected with the indicated plasmids and lysed in NP40 lysis buffer (Beyotime, P0013F) supplemented with protease inhibitor cocktail (Thermo, 78446). Lysates were incubated with the indicated Anti-Flag nanobody magarose beads (Ktsm-life, KTSM1338), Anti-HA nanobody magarose beads (Ktsm-life, KTSM1335) or Anti-GFP nanobody magarose beads (Ktsm-life, KTSM1334) overnight at 4 °C. The protein complex was washed four times with the NP40 lysis buffer, eluted with 1×loading buffer (Beyotime, P0015) by boiling for 5 min, followed by mass spectrometry and immunoblotting with the indicated antibodies.
(§7) Protein was extracted from the cells with RIPA buffer (Beyotime, P0018) or NP40 lysis buffer (Beyotime, P0013F) and separated by SDS-PAGE, and transferred to polyvinylidene difluoride membranes. Primary antibodies against GREM1 (1:1,000, SinoBiological, 50016-R117), ACVR1C (1:1,000, Thermo, PA587475), Flag-tag (1:1,000, CST, 14793), HA-tag (1:1,000, CST, 3724), E-Cadherin (1:1,000, CST, 3195), β-Catenin (1:1,000, CST, 8480), ZEB1 (1:1,000, CST, 3396), Snail (1:1,000, CST, 3879), SMAD2/3 (1:1,000, CST, 8685), p-SMAD2/3 (1:1,000, CST, 8828), SMAD1 (1:1,000, CST, 6944), p-SMAD1/5/9 (1:1,000, CST, 13820), TGFβ (1:1,000, CST, 3709), TGFβR1 (0.3 µg/mL, R&D, AF3025), β-actin (1:5,000, Beyotime, AF0003) and GAPDH (1:5,000, Beyotime, AF0006) were used in this study. Peroxidase-conjugated secondary antibody (1:10,000, Cell Signaling Technology, 7074, 7076) was used and signal was visualized using an enhanced chemiluminescence assay (ECL, Thermo), according to the manufacturer’s protocol. Band intensity was quantified using Fiji (ImageJ) by grayscale analysis.

[5] = test system: ACVR1C-ECD; test: MST binding of ACVR1C-ECD-Fc to GREM1-His or ACTIVIN B-His; parameters: species or system human
Source text: as §4, §5

[6] = test system: TGFβR1; test: Co-immunoprecipitation of GREM1 and TGFβR1; assay type: binding, human; conditions: HCT116 cells, HA-tagged GREM1, anti-HA
Description: as §6, §2

[7] = test system: HCT116 cells; test: Subcutaneous transplantation of GREM1-CM-pretreated HCT116 cells in nude mice; assay type: in vivo, human cells in nude mice; conditions: subcutaneous model, HCT116 cells pretreated with GREM1-CM (Figures S8A–C)
Description: For cecum-to-liver metastasis model, 1 × 10^6 MC38-luc cells were resuspended in 50 µL of PBS and injected into the cecum of GD mice or control mice (Grem1-CreER^T2/Rosa-LSL-DTA mice) (n = 6 mice in each group); 5 × 10^6 HCT116-luc cells transduced with lentivirus carrying a pLV or pLV-GREM1 were injected into the cecum of NOG mice (n = 5 mice in each group). SB505124 was administered via intraperitoneal injection at a dose of 10 mg/kg once every other day. The metastases were examined every 5 days post injection using an IVIS Lumina Imaging System. Mice were euthanized between 2 and 6 weeks after injection. […] Mice were euthanized 4 weeks after injection. The tumor tissues were collected for further evaluation.
Figure S8. SB505124 inhibits GREM1-CM-induced EMT and metastasis of CRC in vivo. […] D, RT–qPCR analysis of epithelial marker CDH1 and mesenchymal markers CTNNB1, SNAI1, ZEB1 in subcutaneous tumor tissues from the indicated treatment groups. n = 3 independent experiments. E-G, Representative IF images (E) and quantification (F, G) of E-CAD (green), SNAIL (red), and DAPI (blue) staining in tumors from the indicated groups. […] H, I, Representative IVIS images (H) and quantification (I) of NOG mice that were injected with HCT116-luc cells in the cecum wall and treated with either SB505124 or vehicle via abdominal injection. Liver metastases were imaged and quantified using the IVIS Lumina Imaging System (n = 5 mice per group). For B–D, F, G and I, data are presented as mean ± s.e.m. P values were calculated using one-way ANOVA with Bonferroni multiple-comparison test (B–D, F, and G) or two-tailed Student’s t-test (I).

[8] = test system: ACVR1C–SMAD2/3 pathway in HCT116 and SW480 cells; test: Immunoblotting p-SMAD2/3 (ACVR1C pathway); assay type: cell-based, human; conditions: SW480 and HCT116 cells, increasing concentrations of rhGREM1
Description: as §1, §2

[9] = test system: SW480 and HCT116 cells; test: Endogenous GREM1 expression by RT–qPCR and immunoblotting; assay type: cell-based, human; conditions: increasing concentrations of rhGREM1, RT–qPCR (n = 3) and immunoblotting
Source text: as §7, §3

[10] = test system: TGFβ or TGFβR1 in CRC cells; test: Immunoblotting TGFβ and TGFβR1 expression; assay type: cell-based, human; conditions: CRC cells (HCT116, SW480), rhGREM1 gradient
Source text: as §7

[11] = test system: CRC cells (SW480, HCT116, and MC38); test: GREM1 withdrawal assay, RT–qPCR and immunoblot; assay type: cell-based, human (SW480, mouse (MC38); conditions: rhGREM1 or rmGrem1 200 ng/mL 24 h, then GREM1-free medium 2 and 4 days
Description: To determine whether tumor cells that have acquired signaling autonomy can sustain GREM1 expression in the absence of external stimulation, we performed a GREM1 withdrawal assay. CRC cells (SW480, HCT116, and MC38) were first pulsed with rhGREM1 or recombinant mouse GREM1 (rmGrem1) for 24 h to initiate the signaling response. The medium containing rhGREM1 or rmGrem1 was then thoroughly removed, replaced with fresh GREM1-free medium, and the cells were cultured for an additional 4 days. […] This persistent, self-sustaining expression supports our conclusion that the initial rhGREM1 or rmGrem1 stimulation triggers a positive feedback loop of GREM1 transcription within CRC cells.
as §2, §3

[12] = test system: BMPR–SMAD1/5/9 pathway in HCT116 or SW480 cells; test: Immunoblotting p-SMAD1/5/9 (BMPR pathway); assay type: cell-based, human; conditions: rhGREM1 gradient
Source text: as §7

binding of ACVR1C-ECD double mutant to GREM1 [3]: no detectable interaction
B1: ACVR1C-ECD double mutant (E85A/T101A): human ACVR1C extracellular domain fused to an Fc tag, double mutant E85A/T101A (protein)
chain: ELSPGLKCVCLLCDSSNFTCQTEGACWASVMLTNGKEQVIKSCVSLPELNAQVFCHSSNNVTKTACCFTDFCNNITLHLPAASPNAPKLGPME
modifications: left off: Fc, end not stated, kept

affinity for ACVR1C relative to ACTIVIN B, in words [5]: superior affinity | fold higher affinity for ACVR1C-ECD than ACTIVIN B ([5]; GREM1 Kd versus ACTIVIN B Kd): 12.6 fold | Kd ([5]; Monolith NT.115, ACVR1C-ECD-Fc 0–27.5 µM vs 50 nM red-fluorescently labeled His-protein, PBS pH 7.4, premium capillaries, n = 3 independent experiments, mean ± s.e.m.): 67.7 ± 10.3 nM
B2: GREM1: GREM1-His protein (R&D, 5190-GR) in MST; HA-tagged GREM1 in co-IP (protein)
chain: T1 sequence (O60565 25-184)
modifications: left off: HA, end not stated, kept | mCherry, end not stated, kept
notes: GREM1-His protein (R&D, 5190-GR) in MST; HA-tagged GREM1 in co-IP
co-IP interaction with ACVR1C [4]: co-immunoprecipitates with ACVR1C; also recorded: interacted with ACVR1C specifically | co-IP interaction with TGFβR1 [6]: no such interaction was detected; also recorded: no direct interaction | effect on subcutaneous tumor proliferation [7]: pro-proliferative effect

The next lines start with the molecule.

Molecule: Brc1ccc(CSc2nc3ccccc3o2)cc1 [sb4]
p-SMAD1/5/9 selectivity [1]: exclusively increases p-SMAD1/5/9 without affecting p-SMAD2/3 | GREM1-CM-induced EMT, effect of treatment [2]: failed to reverse GREM1-induced EMT

B3: rhGREM1: recombinant human GREM1 (protein)
chain: T1 sequence (O60565 25-184)
modifications: red fluorescent label (NanoTemper, MO-L011) in the MST assays; left off: His, end not stated, kept
notes: recombinant human GREM1
p-SMAD2/3, concentration gradient [8]: dose-dependent increase in p-SMAD2/3 | endogenous GREM1 expression [9]: dose-dependent upregulation of tumor GREM1 expression | TGFβ or TGFβR1 expression [10]: No changes were observed across all doses tested | endogenous GREM1 expression after withdrawal [11]: not only maintained but in some cases further increased even after the withdrawal of exogenous GREM1; also recorded: maintained elevated endogenous GREM1 expression even after withdrawal of exogenous GREM1 | p-SMAD1/5/9 [12]: suppressed the p-SMAD1/5/9
